Results on five molecules are retold here after paper PMC9849446, “Heating-mediated purification of active FGF21 and structure-based design of its variant with enhanced potency” (Scientific Reports, 2023).

Numbering of substitutions follows the chain as printed. Names and notes keep the numbering of the source.

B1: wild type human FGF21 purified through heat treatment (htFGF21) (ligand, UniProt Q9NSA1 33-209, looked up)
chain: DSSPLLQFGGQVRQRYLYTDDAQQTEAHLEIREDGTVGGAADQSPESLLQLKALKPGVIQILGVKTSRFLCQRPDGALYGSLHFDPEACSFRELLLEDGYNVYQSEAHGLPLHLPGNKSPHRDPAPRGPARFLPLPGLPPALPEPPGILAPQPPDVGSSDPLSMVGPSQGRSPSYAS
notes: human fibroblast growth factor 21 (FGF21), residues 33-209; The TEV site ENLYFQ/G stood between Trx and FGF21, so a Gly probably remains before residue 33 after cleavage (surmised); also called htWT; wild type htFGF21; not shown: Trx, N-terminal, cleaved
B2: htFGF21 variant with S195G, P199G, and S200G mutations (htM3) (ligand, human, UniProt Q9NSA1 33-209, looked up)
chain: B1 chain with S163G, P167G, S168G
notes: human FGF21 with S195G, P199G and S200G; A Gly from the TEV site probably remains at the N-terminus (surmised); not shown: Trx, N-terminal, cleaved
B3: htFGF21 variant with S195G, P199G, S200G, Q201H, and A208T mutations (htM5) (ligand, human, UniProt Q9NSA1 33-209, looked up)
chain: B1 chain with S163G, P167G, S168G, Q169H, A176T
notes: human FGF21 with S195G, P199G, S200G, Q201H and A208T; A Gly from the TEV site probably remains at the N-terminus (surmised); also called M5 variant; not shown: Trx, N-terminal, cleaved
B4: htFGF21 variant with Q201H and A208T mutations (htM2) (ligand, human, UniProt Q9NSA1 33-209, looked up)
chain: B1 chain with Q169H, A176T
notes: human FGF21 with Q201H and A208T; A Gly from the TEV site probably remains at the N-terminus (surmised); not shown: Trx, N-terminal, cleaved
B5: wild type human FGF21 purified without heating (nFGF21) (ligand, UniProt Q9NSA1 33-209, looked up)
chain: B1 chain
notes: human fibroblast growth factor 21 (FGF21), residues 33-209; differs only in that the 100 °C step was left out of the purification; The TEV site ENLYFQ/G stood between Trx and FGF21, so a Gly probably remains before residue 33 after cleavage (surmised); also called fibroblast growth factor 21; wild type FGF21; source: E. coli Rosetta (DE3), purified without heating; not shown: Trx, N-terminal, …

The first test addresses T1, Human β-Klotho (human, UniProt Q86Z14 1-996).
T1 sequence (looked up): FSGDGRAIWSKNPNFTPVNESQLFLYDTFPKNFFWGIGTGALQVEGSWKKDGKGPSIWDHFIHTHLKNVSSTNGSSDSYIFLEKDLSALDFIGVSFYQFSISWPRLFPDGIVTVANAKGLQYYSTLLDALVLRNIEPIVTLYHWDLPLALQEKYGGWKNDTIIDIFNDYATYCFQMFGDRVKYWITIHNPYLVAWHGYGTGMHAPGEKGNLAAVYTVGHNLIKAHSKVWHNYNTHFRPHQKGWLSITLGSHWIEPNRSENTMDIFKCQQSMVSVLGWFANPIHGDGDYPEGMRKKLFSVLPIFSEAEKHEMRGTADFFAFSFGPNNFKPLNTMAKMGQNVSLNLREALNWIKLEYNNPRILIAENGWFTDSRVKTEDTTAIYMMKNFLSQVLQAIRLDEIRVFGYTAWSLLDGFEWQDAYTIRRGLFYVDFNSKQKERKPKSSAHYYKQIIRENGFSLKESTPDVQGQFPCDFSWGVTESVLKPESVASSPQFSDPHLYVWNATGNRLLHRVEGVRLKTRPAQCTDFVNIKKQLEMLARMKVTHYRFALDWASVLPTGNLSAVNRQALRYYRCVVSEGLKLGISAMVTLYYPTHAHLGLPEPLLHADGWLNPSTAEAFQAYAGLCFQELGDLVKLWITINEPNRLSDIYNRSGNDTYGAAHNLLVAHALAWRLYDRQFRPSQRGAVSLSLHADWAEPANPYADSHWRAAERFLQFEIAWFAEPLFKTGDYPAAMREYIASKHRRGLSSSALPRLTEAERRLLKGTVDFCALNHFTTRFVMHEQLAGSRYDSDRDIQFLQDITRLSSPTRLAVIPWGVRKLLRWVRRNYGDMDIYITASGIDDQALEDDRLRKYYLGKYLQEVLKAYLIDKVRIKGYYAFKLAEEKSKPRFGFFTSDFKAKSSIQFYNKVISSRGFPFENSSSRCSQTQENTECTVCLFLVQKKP
Put plainly: cell-based or functional assay.
Conditions: not given
For the molecule B1, the “EC50 of FGFR1c/β-Klotho activation, luciferase reporter in modified HEK293 cells, 6 h” value (from here on “EC50 of FGFR1c/β-Klotho activation”) is 2.74 ng/mL.

B2: the “EC50 of FGFR1c/β-Klotho activation” value is 0.75 ng/mL.

Regarding B3, the “EC50 of FGFR1c/β-Klotho activation” value came to 0.52 ng/mL.

For B4, the “EC50 of FGFR1c/β-Klotho activation” value amounted to 1.37 ng/mL.

A further test concerns the target T1, Human β-Klotho. Put plainly: SPR; Biacore 8K; FGF21s covalently immobilised on CM5 chip by amine coupling (about 700-900 RU); human β-Klotho injected as 2.5-fold series 250 to 1.024 nM at 30 μl/min; 25 °C; HBS-EP+ (10 mM HEPES pH 7.4, 150 mM NaCl, 3 mM EDTA, 0.05% polysorbate 20); global fit, 1:1 Langmuir model. As to conditions: both partners purified. A general note: Surface plasmon resonance follows binding to a sensor surface in real time, without labels.
As a reminder, the Kd is a measure of binding affinity in units of concentration. Broadly, the koff is the first-order rate constant of dissociation. Higher therefore signals a short-lived complex. A word on the kon: it is a measure of how fast the partners come together. A lower kon goes with slow association. Turning to B1, the Kd was 12.9 nM, the koff was found to be 0.00155 s⁻¹ and the kon stood at 121000 M⁻¹ s⁻¹.

Molecule B5 yielded a Kd of 12.8 nM, a koff of 0.00159 s⁻¹ and a kon of 126000 M⁻¹ s⁻¹.

B2 returned a Kd of 5.19 nM, a koff of 0.000785 s⁻¹ and a kon of 152000 M⁻¹ s⁻¹.

In turn, B3 returned a Kd of 4.32 nM, an off-rate (koff) of 0.000707 s⁻¹ and a kon of 164000 M⁻¹ s⁻¹.

The molecule B4 had a Kd of 10.9 nM, a koff of 0.0013 s⁻¹ and a kon of 120000 M⁻¹ s⁻¹.
